The results in this text go back to article PMC2918291 (Nature structural & molecular biology, 2010).

The series concerns the molecule itself. Description: crystal structure.

B1: MthK K^+ channel ion conduction pore, S68R V77C mutant (domain or fragment, Methanobacterium thermoautotrophicum)
chain: VPATRILLLVLAVIIYGTAGFHFIEGESWTVSLYWTFVTIATVGYGDYSPRTPLGMYFTCTLIVLGIGTFAVAVERLLEFLI
Take B1: the binding result is listed as “binds”.
